Assay results published in patent publication US20030170748A1 (IAMS, published 2003).
Like-named read-outs stand apart in the source and are kept apart here. Square brackets hold non-standard residues; d marks the D form. Ends that are not written are not given here. βAla = NCCC(=O)O

Experiments:
[1] = target: T1, canine PepT1 (cPepT1) (canine, UniProt Q8WMX5 1-708); assay: cell-based or functional assay
T1 sequence: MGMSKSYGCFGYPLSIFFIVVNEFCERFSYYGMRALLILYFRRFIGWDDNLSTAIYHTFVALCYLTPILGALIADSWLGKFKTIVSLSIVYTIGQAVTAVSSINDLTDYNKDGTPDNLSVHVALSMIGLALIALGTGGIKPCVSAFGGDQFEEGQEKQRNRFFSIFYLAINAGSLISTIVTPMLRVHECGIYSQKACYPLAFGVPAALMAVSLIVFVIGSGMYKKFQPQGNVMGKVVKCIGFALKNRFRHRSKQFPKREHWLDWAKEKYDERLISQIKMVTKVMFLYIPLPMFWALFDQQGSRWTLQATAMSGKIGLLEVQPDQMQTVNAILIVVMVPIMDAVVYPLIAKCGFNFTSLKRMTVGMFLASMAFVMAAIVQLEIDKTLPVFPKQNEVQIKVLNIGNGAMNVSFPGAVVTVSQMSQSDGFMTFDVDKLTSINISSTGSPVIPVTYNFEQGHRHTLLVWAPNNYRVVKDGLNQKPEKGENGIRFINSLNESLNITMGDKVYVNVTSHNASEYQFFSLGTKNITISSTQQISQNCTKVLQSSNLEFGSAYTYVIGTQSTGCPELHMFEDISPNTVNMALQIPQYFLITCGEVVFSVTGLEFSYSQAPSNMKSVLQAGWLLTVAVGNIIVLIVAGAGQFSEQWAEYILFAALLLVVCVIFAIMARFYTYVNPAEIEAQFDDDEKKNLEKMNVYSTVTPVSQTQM

[2] = target: T1, canine PepT1 (cPepT1); assay: inhibition of H+-dependent 100 µM [3H]GlySar uptake by MDCK cells; Ki by graphical analysis of IC50 experiments; competitor GlySar
[3] = target: T1, canine PepT1 (cPepT1); assay: cell-based or functional assay; remark: listed apart in the source
[4] = target: T1, canine PepT1 (cPepT1); assay: cell-based or functional assay; remark: listed apart in the source

LeuMet (peptide) gave a % inhibition of H+-dependent GlySar uptake (100 µM substrate, 100 µM GlySar, MDCK cells; Leu-containing peptides experiment) [1] of 80%.

For MetMet (peptide), the % inhibition of H+-dependent GlySar uptake (1 mM substrate, 100 µM GlySar, MDCK cells) [1] was 100%.

Molecule MetPhe (peptide) has a % inhibition of H+-dependent GlySar uptake (1 mM substrate, 100 µM GlySar, MDCK cells) [1] of 100%.

Work on TrpGlyGly (peptide) yielded a % inhibition of H+-dependent GlySar uptake (1 mM substrate, 100 µM GlySar, MDCK cells) [1] of 33% and an inhibition of 100 µM GlySar uptake by 1 mM peptide, MDCK cells [1] of 73%.

TrpLeu (peptide) gave a % inhibition of H+-dependent GlySar uptake (100 µM substrate, 100 µM GlySar, MDCK cells; Leu-containing peptides experiment) [1] of 94%, a % inhibition of H+-dependent GlySar uptake (100 µM substrate, 100 µM GlySar, MDCK cells; Trp-containing peptides experiment) [1] of 92% and a % inhibition of H+-dependent GlySar uptake (1 mM substrate, 100 µM GlySar, MDCK cells) [1] of 116%. For the same molecule, the % inhibition of pH 6.0 uptake, 10 mM competitor, collagen [1] was 8%, the % inhibition of pH 6.0 uptake, 10 mM competitor, poly-L-lysine [1] was 8.1% and the Glysylsarcosine uptake, pH 6.0, with 10 mM competitor, MDCK cells on collagen (pmol 30 min^-1 mg^-1 protein) [1] was 5.21. It also gave a Glysylsarcosine uptake, pH 6.0, with 10 mM competitor, MDCK cells on poly-L-lysine (pmol 30 min^-1 mg^-1 protein) [1] of 3.44, an inhibition of H+-dependent 100 µM GlySar uptake by 1 mM peptide, MDCK cells [1] of 117% and an inhibition of H+-dependent GlySar uptake by 10 mM peptide, MDCK cells on collagen [1] of 92%. The inhibition of H+-dependent GlySar uptake by 10 mM peptide, MDCK cells on poly-L-lysine [1] was 92% and the Ki [2] was 200 nM.

TrpTrp (peptide) was tested, and the % inhibition of H+-dependent GlySar uptake (100 µM substrate, 100 µM GlySar, MDCK cells; Trp-containing peptides experiment) [1] was 62%, the % inhibition of H+-dependent GlySar uptake (1 mM substrate, 100 µM GlySar, MDCK cells) [1] was 119% and the Ki [2] was 750 nM.

In the case of glycylsarcosine (GlySar) (peptide), the Km of H+-dependent GlySar uptake by MDCK cells (FIG. 12 legend) [1] is reported as 1000 µM, the apparent Km of H+-dependent GlySar uptake by MDCK cells grown in LHM [1] is reported as 1100 µM and the apparent Km of total GlySar uptake by confluent MDCK cells, pH 6.0 [1] is reported as 4 mM. The self-inhibition of 100 µM GlySar uptake by 1 mM GlySar, MDCK cells [1] was 64%.

B1: Carnosine (β-AlaHis) (peptide)
peptide: [βAla]-His
In the case of B1, the “% inhibition of H+-dependent GlySar uptake (1 mM substrate, 100 µM GlySar, MDCK cells)” value [3] is reported as 50%.

B2: MetGlyMetMet (SEQ ID NO:10) (peptide)
peptide: MGMM
With B2 the “% inhibition of H+-dependent GlySar uptake (1 mM substrate, 100 µM GlySar, MDCK cells)” value [3] was 50%.

B3: [Gly]4 (peptide)
peptide: GGGG
For B3, the “% inhibition of H+-dependent GlySar uptake (1 mM substrate, 100 µM GlySar, MDCK cells)” value [3] was 19% and the “inhibition of H+-dependent 100 µM GlySar uptake by 1 mM peptide, MDCK cells” value [4] was 23%.

B4: [Gly]5 (peptide)
peptide: GGGGG
B4 was tested, and the “% inhibition of H+-dependent GlySar uptake (1 mM substrate, 100 µM GlySar, MDCK cells)” value [3] was 9% and the “inhibition of H+-dependent 100 µM GlySar uptake by 1 mM peptide, MDCK cells” value [4] was 7.3%.

B5: LeuTrp (peptide)
peptide: LW
For B5, the “% inhibition of H+-dependent GlySar uptake (1 mM substrate, 100 µM GlySar, MDCK cells)” value [3] was 113% and the “inhibition of H+-dependent 100 µM GlySar uptake by 1 mM peptide, MDCK cells” value [4] was 114%.
